Laboratory results: patent US20080267971A1 (published 2008)

Columns and labels:
mouse Angiopoietin-2 = target: T1, mouse Angiopoietin-2 (mouse, UniProt O35608 19-496); assay: competition ELISA: binding of mouse Ang-2 (culture supernatant) to coated human Tie2/Fc, mAb 3.19.3 titrated, bound Ang-2 detected with polyclonal anti-Ang-2
T1 construct: Used as conditioned medium of transfectants; also called mAng-2; mouse Ang-2
T1 sequence: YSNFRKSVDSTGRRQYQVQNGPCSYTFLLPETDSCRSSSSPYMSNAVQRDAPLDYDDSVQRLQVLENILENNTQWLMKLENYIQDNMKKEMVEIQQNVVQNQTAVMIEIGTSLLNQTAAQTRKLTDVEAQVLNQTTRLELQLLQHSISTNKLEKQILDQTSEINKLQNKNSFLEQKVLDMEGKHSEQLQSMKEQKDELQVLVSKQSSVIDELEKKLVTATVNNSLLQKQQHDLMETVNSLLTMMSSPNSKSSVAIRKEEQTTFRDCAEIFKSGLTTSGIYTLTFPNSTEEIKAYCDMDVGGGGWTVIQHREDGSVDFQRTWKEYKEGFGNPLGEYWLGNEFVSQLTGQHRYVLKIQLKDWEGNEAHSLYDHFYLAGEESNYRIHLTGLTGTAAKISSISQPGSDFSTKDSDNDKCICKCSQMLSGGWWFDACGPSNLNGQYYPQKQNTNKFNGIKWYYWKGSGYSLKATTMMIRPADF
Description: (§1) For this purpose, an ELISA plate was coated with 4 μg/ml of hTie2/Fc (R&D Systems, Inc.) at 100 μl/well, and the wells were blocked as routine at 4° C. overnight.
(§2) Each concentration of the mAb was tested in triplicate. […] OD650 was determined 30 min after the HRP substrate was added.

human Angiopoietin-2 [1] = target: T2, human Angiopoietin-2 (human, UniProt O15123 19-496); assay: KinExA, KD-controlled titration; KinExA, KD-controlled titration, 5 days at ~24 C
T2 construct: Mostly bought recombinant protein (R&D Systems 623-AM/CF, 623-AN; biotinylated BT623) or supernatant of transfected 293F cells; also called Ang-2; rhAng-2
T2 sequence: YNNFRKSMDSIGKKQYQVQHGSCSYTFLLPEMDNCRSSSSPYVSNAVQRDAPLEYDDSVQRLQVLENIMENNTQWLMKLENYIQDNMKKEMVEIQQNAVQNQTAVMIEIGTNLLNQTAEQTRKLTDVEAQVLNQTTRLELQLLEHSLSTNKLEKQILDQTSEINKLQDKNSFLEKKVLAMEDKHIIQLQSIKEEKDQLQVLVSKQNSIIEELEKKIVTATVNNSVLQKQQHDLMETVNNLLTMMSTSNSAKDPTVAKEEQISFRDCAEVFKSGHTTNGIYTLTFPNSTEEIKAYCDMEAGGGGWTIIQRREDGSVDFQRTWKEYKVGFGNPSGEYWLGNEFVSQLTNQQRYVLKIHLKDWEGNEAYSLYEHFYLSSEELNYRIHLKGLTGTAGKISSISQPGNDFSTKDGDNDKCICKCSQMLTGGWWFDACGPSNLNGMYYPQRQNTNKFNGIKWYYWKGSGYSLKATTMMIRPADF
Description: For this purpose, a KinExA 3000 instrument was utilized. […] The beads were then centrifuged and washed once with blocking buffer (1×PBS, 10 mg/ml BSA), centrifuged again, and then incubated in blocking buffer for one hour at 24° C. After blocking, the beads were diluted in approximately 30 mL of HBS buffer (0.01 M Hepes, 0.15 M NaCl, pH 7.4) in a standard KinExA bead reservoir vial and placed on the instrument.
The KinExA instrument method used for the analysis of these solutions consisted of a bead packing step in which the PMMA beads were packed into a glass capillary, and the equilibrated solutions were flowed through the bead column at 0.25 mL/min for 6 min (1.5 mL) in duplicate. […] The fluorescence emission from the bead pack was measured at 670 nm with excitation at 620 nm. The resulting fluorescence measurements were converted into “% free nab binding site” versus total antigen concentration using the accompanying KinExA software package (version 1.0.3, Sapidyne, Inc.). The resulting KD-controlled titration curve was fit with the KinExA software to a 1:1 equilibrium isotherm with a drift correction factor included.

human Angiopoietin-2 [2] = target: T2, human Angiopoietin-2; assay: high resolution Biacore, mAb immobilized, 2nd experiment
Description: (§3) The mAb was then immobilized on flow cells 1-3 (CM5 Biacore chip) using routine amine coupling, leaving flow cell 4 as the reference flow cell.
(§4) The antibody surfaces were regenerated with a 6-second pulse of 15 mM NaOH after each injection cycle.
(§5) The sample injections alternated with three blank injection cycles. Each surface was regenerated with a 6-second pulse of 15 mM NaOH after each long off-rate injection cycle.

human Angiopoietin-2 [3] = target: T2, human Angiopoietin-2; assay: high resolution Biacore, 2nd experiment; kd held constant (*)
Description: as §3, §4, §5

human Angiopoietin-2 [4] = target: T2, human Angiopoietin-2; assay: competition ELISA: binding of recombinant human Ang-2 to coated human Tie2/Fc, mAb 3.19.3 titrated, bound Ang-2 detected with polyclonal anti-Ang-2
Description: as §1, §2

human Angiopoietin-1 = target: T3, human Angiopoietin-1 (human, UniProt Q15389 20-498, limits assumed); assay: Biacore, mAb captured
T3 construct: Bought recombinant protein (R&D Systems 293-AN-025/CF) or supernatant of transfected 293F cells; also called Ang-1; recombinant Ang-1
T3 sequence: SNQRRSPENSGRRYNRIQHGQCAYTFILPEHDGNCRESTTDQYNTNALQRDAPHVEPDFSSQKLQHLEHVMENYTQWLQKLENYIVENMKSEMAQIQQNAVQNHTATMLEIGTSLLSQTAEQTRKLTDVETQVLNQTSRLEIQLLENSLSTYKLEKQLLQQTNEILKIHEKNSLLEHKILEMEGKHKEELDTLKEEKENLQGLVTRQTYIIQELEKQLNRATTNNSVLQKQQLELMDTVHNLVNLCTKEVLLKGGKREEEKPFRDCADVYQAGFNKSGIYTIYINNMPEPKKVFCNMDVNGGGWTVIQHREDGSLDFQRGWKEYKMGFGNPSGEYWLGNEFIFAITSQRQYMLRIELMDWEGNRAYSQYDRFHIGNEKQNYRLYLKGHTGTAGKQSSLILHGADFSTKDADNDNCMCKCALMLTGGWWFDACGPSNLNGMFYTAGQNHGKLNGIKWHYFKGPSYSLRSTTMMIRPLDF

human Angiopoietin-2 [5] = target: T2, human Angiopoietin-2; assay: Biacore; kd held constant (*); kd held constant in the fit, not measured
Description: The label-free surface plasmon resonance (SPR), or Biacore, was utilized to measure the antibody affinity to the antigen. For this purpose, a high-density goat anti-human antibody surface over a CM5 Biacore chip was prepared using routine amine coupling. All the purified mAbs were diluted to approximately 8 μg/ml in HBS-P running buffer containing 100 μg/ml BSA and 10 mg/mL carboxymethyldextran. Each mAb was captured on a separate surface using a 42-second contact time, and a 5-minute wash for stabilization of the mAb baseline.
Data were fit globally to a 1:1 interaction model to determine the binding kinetics.

human Angiopoietin-2 [6] = target: T2, human Angiopoietin-2; assay: Biacore, mAb immobilized, 8 h dissociation

B1: mAb 3.19.3 (antibody, V domains shown)
VH: QVQLVESGGGVVQPGRSLRLSCAASGFTFTNYGMHWGRQAPGKGLEWVAVISHDGNNKYYVDSVKGRFTISRDNSKNTLYLQMNSLRAEDTAVYYCAREGIDFWSGLNWFDPWGQGTLVTVSS
VL: EIVLTQSPGTLSLSPGERATLSCRASQSITGSYLAWYQQKPGQAPRLLICGASSWATGIPDRFSGSGSGTDFTLTISRLEPEDFAVYYCQQYSSSPITFGQGTRLEIKR
notes: Human hybridoma IgG (XenoMouse); also called x3.19
Mouse Angiopoietin-2
  IC50 (read off the curve): ~2 µg/mL
Human Angiopoietin-2 [1]
  Kd: 86.4 pM
Human Angiopoietin-2 [2]
  Kd: 5.6 pM
  kon: 178000 M⁻¹ s⁻¹
Human Angiopoietin-2 [3]
  koff: ~1e-06 s⁻¹
Human Angiopoietin-2 [4]
  IC50 (read off the curve): ~0.8 µg/mL

B2: mAb 3.3.2 (antibody, V domains shown)
VH: EVQLVESGGGLVQPGGSLRLSCAVSGFTFSSYWMSWVRQAPGKGLEWVANIKQDGSEKYYVDSVKGRFTISRDNAKNSLYLQMNSLRAEDTAVYYCARDQGIAVAGPFDYWGQGTLVTVSS
VL: EIVMTQSPATLSVSPGERATLSCRASQTVSSDLAWYQQKPGQAPRLLIYGASIRATGIPARFSGSGSGTEFTLTISSLQSEDFAVYSCQQYYNWWTFGQGTKVEIKR
notes: Human hybridoma IgG (XenoMouse); also called 3.3.1; x3.3
Human Angiopoietin-1
  binding result: no binding (tested: 87.4 nM Ang-1)

B3: mAb 5.52.1 (antibody, V domains shown)
VH: QVQLVESGGGVVQPGRSLRLSCAASGFTFSSYGMHWVRQAPGKGLEWVAVRWYDESNKYYADSVKGRFTISRDNSKNTLYLQMNSLRAEDTAVYYCARDPFETGTTFDYWGQGTLVTVSS
VL: DIQMTQSPSSVSASVGDRVTITCRASQGISSWLAWYQQKPGKAPKLLIYAVSSLESGVPSRFSGSGSGTDFTLTISSLQPEDFATYYCQQALTFGGGTKVEIKR
notes: Human hybridoma IgG (XenoMouse); the line 5.52 has entries of its own (347, 349; light chain L2) that differ from the clone 5.52.1 (L5); also called x5.52
Human Angiopoietin-2 [5]
  koff: ≤ 1e-05 s⁻¹

B4: mAb 5.35.1 (antibody, V domains shown)
VH: EVQLVESGGGVVRPGGSLRLSCTTSGFTFDDYGMSWVRQAPGKGLEWVSGINWNGGSTVYADSVKGRFTISRDSAKNSLYLQMNSLRAEDTALYHCARNKQWLWYFDLWGRGTLVTVSS
VL: EIVMTQSPATLSVSPGERATLSCRASQSVSSNLAWYQQKPGQAPRLLIYGASTRATGIPARFSGSGSGTEFTLTISSLQSEDFAVYYCEQYNNWPLTFGGGTKVEIKR
notes: Human hybridoma IgG (XenoMouse); also called x5.35
Human Angiopoietin-2 [6]
  Kd: 3.31 pM
  koff: 1.87e-06 s⁻¹
  kon: 564000 M⁻¹ s⁻¹
